Measured values taken from patent publication US12465646B2, “Linkers” (Oxford University Innovation Limited, priority 2018, dated 2025).
Where no end group is shown, it is not given here. [ ]: non-standard residue; d: D form. GABA = NCCCC(=O)O; βAla = NCCC(=O)O

Columns and labels:
human hepatocytes = experiment: Hepatocyte cell viability; assay type: cell-based; conditions: 40 μM
Method: Immortalized myoblasts from healthy individual or DM1 patient with 2600 CTG repeats were cultivated in a growth medium consisting of a mix of M199:DMEM (1:4 ratio; Life technologies) supplemented with 20% FBS (Life technologies), 50 μg/ml gentamycin (Life technologies), 25 μg/ml fetuin, 0.5 ng/ml bFGF, 5 ng/ml EGF and 0.2 μg/ml dexamethasone (Sigma-Aldrich). Myogenic differentiation was induced by switching confluent cell cultures to DMEM medium supplemented with 5 μg/ml insulin (Sigma-Aldrich) for myoblasts. For treatment, WT or DM1 cells are differentiated for 4 days. Then, medium was changed with fresh differentiation medium with peptide-PMOs at a 1, 2, 5 10, 20 or 40 μM concentration. Cells were harvested for analysis 48 h after treatment. Cell viability was quantified in after 2 days of transfection of peptide-PMOs at 40 μM in human hepatocytes or at a 1, 2, 5 10, 20 or 40 μM concentration in human myoblasts using a fluorescent-based assay (Promega).

[1] = Recovery time of mice after intravenous injection of peptide-PMO-CAG7; assay type: in vivo, C57BL6 mice
Method: Animal experiments and ASO injections. Experiments were carried out in the University of Oxford according to UK legislation. The intravenous injections in HSA-LR C57BL/6 mice were performed by single or repeated administrations via the tail vein. Doses of 30, 12.5, 7.5 and 5 mg/kg of peptide-PMO-CAG7 (SEQ ID NO: 81) were diluted in 0.9% saline and given at a volume of 5-6 μL/g of body weight. KIM-1 levels in C57BL6 female mice measured by ELISA (R&D cat #MKM100) with samples diluted to fit within standard curve. Values were normalised to urinary creatinine levels (Harwell) to account for urine protein concentration.

[2] = CPP carrier; cited from earlier work
exon skipping = conditions: in a conjugate with a therapeutic molecule; cited from earlier work

## Ac-RXRRBRRXR-YQFLI-RXRBRXR-(B) [pip6a, reference compound]
Human hepatocytes
  percentage hepatocyte cell viability: cell mortality
[1]; 12.5 mg/kg, HSA-LR mouse, 8-12 weeks
  recovery time after injection, time AV ± SD: >60 min

## Ac-RRRRRR-(G) (Ac-RRRRRRG; also: conjugated therapeutic molecule via glycine linker) [R6Gly]
[2]
  toxicity: reduced toxicity
Exon skipping
  efficacy in inducing exon skipping: reduced efficacy

## Ac-RBRRBRFQILYBRBR-B [DPEP1.9]
[1]; 7.5 mg/kg, HSA-LR mouse, 8-12 weeks
  recovery time after injection, time AV ± SD: 0 min
[1]; 30 mg/kg, HSA-LR mouse, 30 weeks
  recovery time after injection, time AV ± SD: >60 min
[1]; 4× 7.5 mg/kg repeated injections, HSA-LR mouse, 8-12 weeks
  recovery time after injection, time AV ± SD: 0 min
[1]; 6× 5 mg/kg repeated injections, HSA-LR mouse, 8-12 weeks
  recovery time after injection, time AV ± SD: 0 min

## Ac-RBRRBRRFQILYRBHBH-Ab (Ac-R[βAla]RR[βAla]RRFQILYR[βAla]H[βAla]H-{GABA-(CAG)7 PMO}) [DPEP3.1a]
[1]; 30 mg/kg, WT mouse, 8-12 weeks
  recovery time after injection, time AV ± SD: 10 min

## Ac-RBRRBRFQILYBRBR-E (Ac-R[βAla]RR[βAla]RFQILY[βAla]R[βAla]RE; also: Glu linker to [CAG]7 PMO, attachment not given here) [DPEP1.9b]
[1]; 30 mg/kg, WT mouse, 8-12 weeks
  recovery time after injection, time AV ± SD: 15 min
